Measured values as given in the supplement of paper PMC11865577.

Tests used:
Assay in all cases: pull-down binding Z-score (relative to library population); higher = stronger binding
TO-N3 (biotin conjugate) = details: RNA library: Library-2
How it was run: (§1)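 Biotin-conjugated small molecule (100 pmol) on streptavidin beads was incubated with 1 μg of heat-folded Cy5- or Cy3-end-labelled RNA library in phosphate/NaCl/KCl buffer at 25 °C for 60 min. Following three washes, RNA was eluted with hot SDS and hybridised at 55.5 °C for 20 h to a DNA barcode microarray. The binding value is a Z-score computed from the library mean and standard deviation, after subtraction of beads without compound and averaging of barcoded replicate probes with the highest and lowest excluded.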

[1] = test system: TO-N3-2 (biotin conjugate); details: RNA library: Library-2
How it was run: as §1

[2] = test system: TO-3-N3-2 (biotin conjugate); details: RNA library: Library-2
How it was run: as §1

[3] = test system: G-clamp-N3 (biotin conjugate); details: RNA library: Library-1 (pre-miRNA loops + repeats)
How it was run: as §1

[4] = test system: TO-3-N3 (biotin conjugate); details: RNA library: Library-2
How it was run: as §1

Sequence | pull-down binding Z-score (TO-N3 (biotin conjugate)) | pull-down binding Z-score [1] | pull-down binding Z-score [2] | pull-down binding Z-score [3] | pull-down binding Z-score [4]
UCCUGAGACAGGA [hsa-mir-4261] | -0.807 | -1.02 | -0.5 | -0.47 | -0.563
UCCUGAGCUAGGAGGAUUAGGA [hsa-mir-5093] | -0.07 | 0.417 | -0.0611 | 1.05 | -0.171
UCCUGAUCUGAUGGAAGUCAUGA [hsa-mir-7843] | -0.0481 | 0.409 | -0.16 | -0.244 | -0.312
UCCUGAUGGUCCCCUCCCCAGGG [hsa-mir-185] | 0.275 | 0.784 | -0.187 | -1.02 | 0.122
UCCUGGGAAGCAUGGUAGCCAGGA [hsa-mir-5192] | 0.319 | 0.994 | 0.431 | 2.06 | 0.314
UCCUGUAGUGUCUUAUAUACAAUACAGUAGGA [hsa-mir-613] | -0.743 | -0.539 | -0.802 | -0.0831 | -0.741
UCCUUUUCUCUACCUUGUAGAGAAGCA [hsa-mir-3609] | 0.281 | -0.258 | -0.379 | -0.207 | 0.0918
UCGAGAGGUCAGAGGAUUGCUCCUGA [hsa-mir-5585] | 0.496 | 1.67 | -0.227 | 3.56 | 0.00526
UCGCCUAGGGCUCUGAGCAGGGCA [hsa-mir-211] | 1.72 | 1.47 | 0.463 | 1.4 | 1.36
UCGGCACUAUUGUGACUGU [hsa-mir-7855] | 0.611 | 0.0889 | -0.16 | -0.0938 | 0.693
UCGUCAGUGUUUGA [hsa-mir-8073] | -0.468 | -0.296 | -0.295 | -0.342 | -0.443
UCUAUCUGUAUUCUUACUGAAGGGA [hsa-mir-504] | -0.937 | -0.728 | -0.42 | 0.763 | -0.739
UCUCAAAAUAAUUCUGCAGUGAGA [hsa-mir-4524b] | -1.13 | -0.868 | 0.0866 | 2.26 | -0.872
UCUCAAUCCAUUCAUAUUGAAA [hsa-mir-3662] | 0.226 | -0.68 | -0.33 | -1.04 | 0.563
UCUGCAGGUUCGCACUGAUGCCUGCUCG [hsa-mir-6726] | 0.309 | 0.569 | -0.102 | 0.44 | 0.0628
UCUGCUUUAUUUCAUCAAAGCAGA [hsa-mir-4773-1] | -1.36 | -1.41 | -0.676 | -0.484 | -0.916
UCUGCUUUGAUGAAAUAAAGCAGA [hsa-mir-4773-2] | -0.206 | -1.05 | -0.423 | -0.541 | -0.145
UCUGGGGAGAGAGUCCUCUUUUCAGC [hsa-mir-8082] | 0.571 | 0.614 | -0.234 | -0.804 | 0.432
UCUGUUGCUUGAAAGAAGAGA [hsa-mir-526a-1] | 0.922 | 0.215 | -0.154 | 1.67 | 0.85
UCUGUUGUCUGAAAGAAAACA [hsa-mir-518b_518c] | -0.285 | 0.0545 | 0.0546 | -0.569 | -0.441

Sequence | pull-down binding Z-score (TO-N3 (biotin conjugate)) | pull-down binding Z-score [1] | pull-down binding Z-score [2] | pull-down binding Z-score [3] | pull-down binding Z-score [4]
UCUGUUUGUUUUCUCUUAAACA [hsa-mir-519d] | -0.828 | -0.847 | -0.553 | -0.0316 | -0.418
UCUGUUUUAAGUAACAGA [hsa-mir-7705] | -1.32 | -1.85 | -0.214 | 0.244 | -0.812
UCUUAGACUAUUACAAGA [hsa-mir-3672] | 0.614 | -0.526 | 0.0159 | -0.633 | 0.922
UCUUAGCACGGGGUCUAAGG [hsa-mir-4747] | -0.33 | -0.257 | -0.0231 | 0.0593 | -0.188
UCUUCCCAAAGUUGAGAAAA [hsa-mir-320d-1] | -0.746 | -0.758 | -0.407 | -1.32 | -0.611
UCUUCCCAGAAUUGGGAAAA [hsa-mir-320c-2] | -1.33 | -1.68 | -0.72 | -0.574 | -0.813
UCUUCCCAGAGUCAGGAAAA [hsa-mir-320c-1] | -0.0041 | 0.191 | -0.0416 | -1.1 | -0.17
UCUUCCCGGAGUCGGGAAAA [hsa-mir-320a] | -0.187 | -0.901 | -0.307 | 1.85 | -0.0669
UCUUCUUGGAGUCAGGAAAA [hsa-mir-320d-2] | -0.663 | -0.514 | -0.458 | -0.411 | -0.553
UCUUCUUUUGGAAGGAAGA [hsa-mir-3122] | -0.591 | -1.53 | -0.532 | 0.729 | -0.175
UCUUGAAUUUUUGCCAGUUCAAGA [hsa-mir-5197] | -1.33 | -1.38 | -0.517 | 0.24 | -0.956
UCUUGGUGCCACCAUUGAGAACGCCAGGA [hsa-mir-492] | -0.279 | 0.868 | -0.506 | -1.02 | -0.644
UCUUUCAUUUUGGAUUUGACU [hsa-mir-766] | -0.0798 | -0.612 | -0.03 | -0.725 | 0.116
UCUUUGGUAAUAAGGUUUGGCAAAGA [hsa-mir-576] | 0.862 | -0.0599 | 0.625 | 1.47 | 1.04
UGAAAGGUUUUUUCUCUCA [hsa-mir-4797] | -0.402 | -0.918 | -0.248 | 0.0116 | -0.332
UGAACAGUGAUUGGUUUCCGCUUUGUUCA [hsa-mir-27b] | 0.133 | -0.317 | 0.275 | -0.672 | 0.138
UGAAGAAGAGUAUUGAUUGUGCUGUUCG [hsa-mir-6788] | 0.494 | 0.16 | -0.00107 | 0.592 | 0.425
UGAAGCCCCGAGAUGCCUCACGUCUUCA [hsa-mir-6802] | 0.243 | 0.573 | -0.123 | -1.85 | 0.00057
UGAAGGUCACCAUGUUCUCCUUG [hsa-mir-3187] | 0.145 | -0.229 | -0.354 | -0.816 | 0.0716
UGAAUAUGUAAUAUAAGUGUAUUG [hsa-mir-450b] | 0.261 | -0.284 | 0.32 | 0.397 | 0.214

Sequence | pull-down binding Z-score (TO-N3 (biotin conjugate)) | pull-down binding Z-score [1] | pull-down binding Z-score [2] | pull-down binding Z-score [3] | pull-down binding Z-score [4]
UGAAUUGAAAUGCGUUACAUUCA [hsa-mir-95] | -0.0852 | 0.088 | -0.0666 | -0.13 | 0.0702
UGACUACUUCGAAAAUGGGAAGUAGACA [hsa-mir-7849] | 0.00324 | -0.497 | -0.277 | 3.04 | 0.0977
UGACUCAGAUCU [hsa-mir-759] | -0.271 | -0.155 | -0.249 | -1.38 | -0.321
UGAGACCUGGUGCAGAACGGGAAGGCGA [hsa-mir-551b] | 1.23 | 1.76 | 0.479 | 1.4 | 0.308
UGAGCAGGCCCAGAACCCAGCUCGUGCUCA [hsa-mir-6794] | 0.56 | 0.805 | -0.114 | 0.169 | 0.387
UGAGCAGGGUCCACACCAAGUCGUGUUCA [hsa-mir-27a] | 1.14 | 1.09 | 0.465 | -0.575 | 0.869
UGAGCAUUCUAGCAGCAGUUUGAUGAUCA [hsa-mir-6516] | -0.394 | -0.196 | -0.419 | -0.0961 | -0.57
UGAGCAUUUUUACUGAAUUGCCA [hsa-mir-6715a] | -0.738 | -0.686 | -0.268 | 0.49 | -0.582
UGAGCUGUGAUGUUGCUCUCGAGCUGG [hsa-mir-769] | 1.02 | 1.27 | 0.336 | -0.872 | 0.732
UGAGGAGCUUAGCAAGUAGCUAAGGCCAGA [hsa-mir-4517] | 0.339 | 1.1 | -0.393 | 0.384 | -0.194
UGAGGAGUAGAACACUCCUUA [hsa-mir-491] | -0.649 | -0.939 | -0.448 | 0.0146 | -0.282
UGAGGUACUUCCUUC [hsa-mir-1205] | 0.104 | -0.169 | -0.247 | -0.28 | 0.111
UGAGGUUUACUAUGGAACCUCA [hsa-mir-4465] | -0.958 | -1.53 | -0.526 | 0.714 | -0.566
UGAGUACAUUAUUUAUGAUUAAUCA [hsa-mir-376a-1] | -0.978 | -0.847 | -0.0505 | -1.62 | -0.874
UGAGUGAUGACUCAGGCGACUCCA [hsa-mir-338] | 0.461 | 1.51 | -0.0635 | 1.31 | -0.345
UGAGUGCCGACUGGCGCCUG [hsa-mir-4750] | 0.0638 | 0.446 | -0.448 | -0.352 | -0.164
UGAGUGCUAUUUCAGUGCAACA [hsa-mir-362] | 0.821 | 0.0784 | 0.108 | -0.0128 | 0.967
UGAGUGGCAUAAUCAGAGUACAAUUUGAGUCAUGCCCAUACAUCA [hsa-mir-23c] | -0.271 | 0.0219 | 0.0374 | -1.1 | -0.338
UGAGUUUA [hsa-mir-451a] | -0.22 | -0.372 | -0.207 | -1.09 | -0.287
UGAUCAUUAUAUGUAUGAUGAGAUCAU [hsa-mir-4528] | -0.54 | -0.0235 | -0.131 | 1.33 | -0.532
